In patent publication US20070082843A1 one finds IC50 data, which are given here for 1 substance.

In this test the target is melanocortin-4 receptor (MC4R) (UniProt P32245). As to the kind of experiment: competitive binding vs [125I]-NDP-alpha-MSH (receptor not given; MC4R by Example 3).
Chain of UniProt P32245 (P32245 whole entry): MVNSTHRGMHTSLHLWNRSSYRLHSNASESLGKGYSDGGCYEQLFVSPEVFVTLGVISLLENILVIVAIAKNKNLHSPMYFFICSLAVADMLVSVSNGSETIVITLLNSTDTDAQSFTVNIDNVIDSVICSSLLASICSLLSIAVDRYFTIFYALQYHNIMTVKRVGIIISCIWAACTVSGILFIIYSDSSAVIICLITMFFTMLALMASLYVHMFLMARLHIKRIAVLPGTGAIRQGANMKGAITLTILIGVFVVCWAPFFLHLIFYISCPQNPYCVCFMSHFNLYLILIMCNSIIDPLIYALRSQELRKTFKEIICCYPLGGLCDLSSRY

In general, IC50 refers to the concentration that gives 50% inhibition. Low readings indicate higher potency, high ones lower potency. melanotan II (MTII) (peptide) returned an IC50 of 5 to 30 nM.
